Reference: patent publication US11834553B2, “Alkoxylation methods” (priority 2009, dated 2023)

Legend:
[1] = Stress stability studies of 4-arm-PEG-Gly-Irino-20K (Example 3); format: physicochemical; conditions: summary of stress stability studies
Description: The product formed in Example 1, 4-arm-PEG-Gly-Irino-20K, compound 5, (approximately 1-2 g) was weighed into PEG PE ‘whirl top’ bags and placed into another ‘whirl top’ bag in order to simulate the API packaging conditions. In one study (results shown in FIG. 1), samples were placed in an environmental chamber at 25° C./60% RH for 4 weeks. In another study, samples were placed in an environmental chamber at 40° C./75% RH for up to several months (results shown in FIG. 2 and FIG. 3). Samples were taken and analyzed on a periodic basis over the course of the studies.

[2] = K2CO3 in CH3OH, 20° C., after 45 minutes
Description: (§1) Experiments were performed to determine the fate of the irinotecan-containing PEG species in 4-arm-PEG-Gly-Irino-20K under transesterification (K2CO3 in CH3OH, 20° C.) and aqueous hydrolysis (pH 10, 20° C.) conditions.

[3] = pH 10, 20° C., within 24 hours
Description: as §1

pentaerythritolyl-4-arm-(PEG-1-methylene-2-oxo-vinylamino acetate linked-irinotecan) [4-arm-PEG-Gly-Irino-20K]
overall stability compared with free base and hydrochloride salt [1]: greater stability than either the free base or hydrochloride salt
transesterification reaction, completion [2]: > 99%
aqueous hydrolysis reaction, completion [3]: > 99%
